The record followed here is the DeepSol protein solubility set.

The data set in a line: soluble on expression in E. coli; label from the status in PepcDB or PDB records.
On to “MGSDKIHHHHHHMKLCSVTKIWDKSAHNAFTDLALYRGKLYCVFREASAHVSPDGALRILCTDNDGQDWHSVALIEADFADLRDGKLVIEGDSLFLFGGAAMHEGKGEGMRSYCWQSDDGIHWSAPRALVKEREWLWRITPHKGYFYGIAYYCHEHDGYAALYKSDANTDFYPLVEKLSQAGYVNESGLVFDEEDKAICLLRRDPLWLTDERALLGESAPPYTQWHWQTANCRVGGPVTFLYQGQLYGVVRLYDGRVRTALVAIDRQSAQIAELLTLPSGGDTSYAGVVLSDNILMVSYYSSHEGDCAIYFAKIAL”, for which the “soluble on expression in E. coli” value is “not soluble”.

As for “MEERDRVKITDRLARPLRDLRLSVIDQCNFRCVYCMPAEVFGPNFRFLAEDQLLTVEEMALLAECFVELGVEKIRLTGGEPLLRRDLDALIERLSALPGLRDIGLTTNGVHLVKWAQRLKAAGLKRVNVSLDALDDDIFRKMNGIGVGAAPVLKGIEAALAAGLGVKVNMVVKKGWNDSQIVPMAAYFKDLGIPLRLIEFMDVGTTNGWDYSHVVTKKEMYEQINAMHPLEPVEKEYFGEVASRYRYAGTNVEVGFIASVTETFCQSCTRARISADGKLYTCLFASKGVSLKDKLRAGEGKEEIKALITTVWNRRTDRYSEERTAETAKQRPKIEMSYIGG”, the “soluble on expression in E. coli” value is given as “not soluble”.

For “MAHHHHHHMKSTRTTAKVRPACLPYSTTMRSSRQTSSLLSRVAHSVGAVVAKANLLRQSPSREAHRPSGPAEGLRPSSSSAKPPVLASGDILRDLAFFTQASEVGFFSTHPSLCAQVFGVVPGDVFEVGGGCAVTSSSVVDVDAGSRMAREAIVVVGARSGKLWVWAYGDEAARVLRVPSSTTSAMLSSAVEVRAAIVEHYQLRQLVHPSRRQCSAGGGKAMEQDAQVEFARTVCEAFQSLCARAHEEVQRLYTPDQLAFLQRAPDLYAAATKRVDRVASSLDDASPTAGVNSEPQRQQPNHPPDGSSSFLPRSIYSDIARHAQHAAAVVLLAPRVSLVTGAVGWVGEGDVVLADSLVSQGGCAEASLSASVVI”, the “soluble on expression in E. coli” value is “soluble”.

Consider “MELQKALKEVREQKIAPVYLLIGTELYLTELFKTTLMKELLTEEDDQFNFFSFDMEETPLSAAIAEAETIPFFGDYRLVFVENPYFLTAERKTNGVEHDVNLLLNYLESPSPTTVLVFMASYEKLDERKKITKALKKNATVVDVNPMDEKAIRQYISQTIESEGYTIRSDAFDLLLQLTDLNLSKIMGELQKLYLYALETKTITRGAVQELVPKSLEHNVFDLTNEVLSGNSEKAVQLYEDLLLQGEETIKLNAILLNQIRLFLQTKILAKMGYQQANIADTLKVHPYRVKLALQQVRRFELSRLERLYDELVENDYRMKTGQMDKELLFQLFILKLTAQAK”, for which the “soluble on expression in E. coli” value is on record as “not soluble”.

Consider “MNSILSLIGRDTELFHQDINANEKELQSVVSQSRFLVLGGAGSIGQAVTKEIFKRNPQKLHVVDISENNMVELVRDIRSSFGYINGDFQTFALDIGSIEYDAFIKADGQYDYVLNLSALKHVRSEKDPFTLMRMIDVNVFNTDKTIQQSIDAGAKKYFCVSTDKAANPVNMMGASKRIMEMFLMRKSEEIAISTARFANVAFSDGSLLHGFNQRIQKNQPIVAPNDIKRYFVTPQESGELCLMSCIFGENRDIFFPKLSEALHLISFADIAVKYLKQLGYEPHLCESEDEARELAKTLPAQGKWPCLFTSSDTTGEKDFEEFFTDKETLDMARFDNLGIIKNDSLYQQELLELFEQKIGQMKTDRQWTKEEIVQLFFIMIPDFGHKETGKYLDSKM”, for which the “soluble on expression in E. coli” value is “soluble”.

Take “MTYGVISWWDYGHWIEAVAHRMPIANPFQAGIGNKYNNVPGASSFFTAENESYAEFVAEKLNVKYVVSDIEMETGKYYAMAVWAEGDLPLAEKYYGGYFYYSPTGTFGYANSQWDIPLNSIIIPLRIPSELYYSTMEAKLHLFDGSGLSHYRMIYESDYPAEWKSYSSQVNLNNESQVLQTALYEAVMRARYGVSPTLEHHHHHH”: the “soluble on expression in E. coli” value is “not soluble”.

With “MMPFEAVIGLEVHVQLNTKTKIFCSCSTSFGESPNSNTCPVCLGLPGALPVLNKEVVKKAIQLGTAIEANINQYSIFARKNYFYPDLPKAYQISQFEVPIVSDGKLEIDTKEGAKIVRIERAHMEEDAGKNIHEGSYSLVDLNRACTPLLEIVSKPDMRNSEEAIAYLKKLHAIVRFIGISDANMQEGNFRCDANVSIRPKGDEKLYTRVEIKNLNSFRFIAKAIEYEIERQSAAWENGRYNEEVVQETRLFDTHKGITLSMRNKEESADYRYFKDPDLYPVFIDEKLLKEAQKINELPSAKKIRYMKDFNLKEDDANLLVSDPLLAQYFESMLHLGVKAKTSVTWLCVELLGRLKAEITLENCGVSTHMLGALAKRIDEGKISGKSAKDVLDKLLEEQGGDVDALIEQMGLSQVNDTEAIVKVIEEVLKNNADKVLEYKSGKDKLFGFFVGQAMKNLKGANPSVVNAILKEKLG”, the “soluble on expression in E. coli” value was “not soluble”.

“MIITVTAFKGGVGKTTSSIHLAAYLNNKAPTILIDGDLNRSALLWASHEKLDFPVVDEREGLKAARNYEHIVVDTPARPEIEEIRSLARGCDLMILPTSPDALSMGALQANIQTFKQLNIPNFRILMTIVPPKPSTAGTEAKEYLQSLGLPVFKRMITRYAAFPKAALEGCVVRDVKGDRYAGAGWNDYKTVGGEIYGLEHHHHHH”: the “soluble on expression in E. coli” value is listed as “soluble”.

For the sequence “MGSDKIHHHHHHMLELTDDLRIGHPVIDADHQRLIEIINEFLEHSNEVNPQILHETLKSLLAYGREHFAREEGIQRQCLYPYQQGHSNEHKSLLDQVREIARAYFVAKTKPLNATSVQDVNELLKAWLIGHVKKFDTSMRDWVAPSLDMDAPRIKLASPDLAALIISPNERSRARLADLLSELGASKVLQAEDSITGLGMAFGDPVPDFIFCDLETEPLDGGAFAGALRGSNKAYITRIPLLLLHDAEDAEAIQNAMAAGASGVYPKSFNPTNLGRLLNQLLLR”, the “soluble on expression in E. coli” value is “not soluble”.

With “MLSIREYLEAGETTISNLLFDHYQKIGLKDDEFLFLLQLFRSQNAGDLFPDLMAIAETMGKTPDTIYKLLNQLVSRGFIRIETQQNQKGQMMDTYDLLPVFQKIQLFLQTSKEKQVVANHEDEIKQLYQGFEKEFGRPLSPIELEMIGQWLNTDHYSPELIRLALREAVLNQAYSLKYIDRILLAWERKNITTKEQVAADQKKRKDSMIQNEIEQQGQTQESLPKVTLHNWLNPEDSE”, the “soluble on expression in E. coli” value is given as “soluble”.

Consider “MLKHLLPLGTRDEFGRRARTKQHLIAVIQAHFKQRGLAPIATPLLENEAVFDPYQMGNYQLYRLFGNDGRTLVLRPDMTLPVARFISATNVPLPQKFGYVGDIFRVSRQLSGSYNQITQAGVELVGYASLKAEFECLTIANQLSSELIADAVEIELGDAQFAQRVVASLTGDEGEQQAILTALFDKQVPRYTKLIAKYRAQPLYDFLKAWPRLFGRPECIFKELAAAPLPETVQPSLKRLQTVVAWMQQTMPEQVISVDLSSQAPQKYYTGLTFRGYSQAGAGYLFSGGRYDKLLTNFQAEAEPAVGMGLNVDLLTTLATDQQTAYAEQLIYFEPEQWSQAEAYLAKQPHAILSLADDLAGARIEAQRLNAQLIDLTGGMTND”, for which the “soluble on expression in E. coli” value is listed as “not soluble”.

In the case of “MDYSSSLPQSDRSTSTAAGHWVLARAGKRVLRPGGLKLTKRMLSAADMQGKEIVEFAPGLGRTAQLIVTEGVSSYVGVDQDSAAVARVEAIVKPHGGTVINAKAHDTGLSGESAEVVVGEAMLTMQGEKAKAEIVAEAFRLLKPGGYYAIHELGLTPNDIDPELADGLRKQLAQTIRVNARPLTENEWRTVLTNAGFEVEWISFAPMALLSPKRNLADEGFLGVVRIIRNLIRDKALRARVFQMRSTFNKYRDHLTGIAIVAKKPSN”, the “soluble on expression in E. coli” value is “not soluble”.

For the sequence “MQVKILDTTLRDGEQTPGVSLSVEQKVMIAEALDNLGVDIIEAGTAIASEGDFQAIKEISQRGLNAEICSFARIKREDIDAAADAGAESIFMVAPSSDIHINAKFPGKDRDYVIEKSVEAIEYAKERGLIVEFGAEDASRADLDFVIQLFKRAEEAKADRITFADTVGVLSPEKMEEIVRKIKAKVKLPLAIHCHDDFGLATANTIFGIKAGAEEFHGTINGLGERAGNAAIEEVVIALEYLYGIKTKIKKERLYNTSKLVEKLSRVVVPPNKPIVGDNAFTHESGIHTSALFRDAKSYEPISPEVVGRKRVIVLGKHAGRASVEAIMNELGYKATPEQMKEILARIKEIGDKGKRVTDADVRTIIETVLQIKREKKVKLEDLAIFSGKNVMPMASVKLKIDGQERIEAAVGLGPVDAAINAIRRAIKEFADIKLVSYHVDAITGGTDALVDVVVQLKKDNKIVTARGARTDIIMASVEAFIEGINMLF”, the “soluble on expression in E. coli” value is “not soluble”.

For “MEYRSLTLDDFLSRFQLLRPQINRETLNHRQAAVLIPIVRRPQPGLLLTQRSIHLRKHAGQVAFPGGAVDDTDASAIAAALREAEEEVAIPPSAVEVIGVLPPVDSVTGYQVTPVVGIIPPDLPYRASEDEVSAVFEMPLAQALHLGRYHPLDIYRRGDSHRVWLSWYEQYFVWGMTAGIIRELALQIGVKPMGHHHHHHSH”, the “soluble on expression in E. coli” value is reported as “not soluble”.

Consider “MGSDKIHHHHHHMFGLIGHLTSLEHAQAVAQELGYPEYADQGLDFWCSAPPQIVDSIIVTSVTGQQIEGRYVESCFLPEMLASRRIKAATRKILNAMAHAQKHGINITALGGFSSIIFENFKLEQFSQVRNIKLEFERFTTGNTHTAYIICKQVEEASKQLGINLSNATVAVCGATGDIGSAVTRWLDARTDVQELLLIARDQERLKELQGELGRGKIMGLTEALPQADVVVWVASMPRGVEIDPTTLKQPCLLIDGGYPKNLATKIQYPGVHVLNGGIVEHSLDIDWKIMKIVNMDVPARQLFACFAESMLLEFEKLYTNFSWGRNQITVDKMEQIGRVSVKHGFRPLLV”, for which the “soluble on expression in E. coli” value was “not soluble”.

For the sequence “MEVVEAAAAQLETLKFNGTDFGVGEGPAAPSPGSAPVPGTQPPLQSFEGSPDAGQTVEVKPAGEQPLQPVLNAVAAGTPAPQPQPPAESPACGDCVTSPGAAEPARAPDSLETSDSDSDSDSETDSDSSSSSSSSSSSSSSSSSSCISLPPVLSDGDDDLQVEKENKNFPLKTKDELLLNELPSVEELTIILPEDIELKPLGMVSSIIEQLVIIESMTNLPPVNEETVIFKSDRQAAGKIFEIFGPVAHPFYVLRFNSSDHIESKGIKIKETMYFAPSMKDFTQYIFTEKLKQDKGSDASWKNDQEPPPEALDFSDDEKEKEAKQRKKSQIQGRKKLKSEFNEPGEDFTEVHQNWNAHSSASEHAKGYRNREFTRGFSRARYPRSCHGRPPPQHFYNSEHMVSQETSGFPSQRQNNPIMPQYPFPLPVFDMHNFPLRPPPPPPPPPVNMGWATPNMAAHPLLNLPYSLPPPPPPPPLPPPPSSGDSNSHFGPYY”, the “soluble on expression in E. coli” value was “soluble”.

Take “HMPSVIVVGGQWGDEGKGSIVAYLSLHDEPEIIARGGVGTNAGHSVVINGKKYAVRQIPTGFMQTKARLLIGAGVLVDPEVFFHELEQLKDFNVKDRVGIDYRCAIIEEKHKQLDRTNGYLHGKIGTTGSGCGPANADRVMRKAKQAKDVKELEPYLTDVAQEINDALDEGSLVLVEGTQGFGLSLYYGTYPYVTSKDVTASSVAADVGIGPTRVDEVIVVFKSFPTRVGAGPFPTEMPMEEADRLGLVEYGTVTGRRRRVGWFDFEMARYSARINGATMLAVTMLDKYDKEAFGVTDYDKLPRKAKEFIEEIEERVGVPVGLIKTGPELEHIIDRRDTI”: the “soluble on expression in E. coli” value is listed as “soluble”.

As to “GPGSMGADIVEVDVWRTSDGALILMHDETLDRTTNGTGRVCDHTLAEVRALRLKDGLGNMTEFTVPTVEEVLLLAKDRAILNLDKADVYLDELYPLLVKTGMVEQTILKSEIPFDELCKRYSADLLNRVIFMPILNITDTTTYKNIDRAFAANHALYEVNFEKENADVLQYIRKLAKNSGAALWINTIWPTTCGGYSDDHALRDKDANWGYVVDRIGAGIIQTDRPAMLLAYLQERGCR”, the “soluble on expression in E. coli” value is given as “not soluble”.
